The labels stand for the following.
B1: Tyrosine-protein kinase BTK, residues 215 to 273; numbered along this chain, Q06187 (parent)
chain: ELKKVVALYDYMPMNANDLQLRKGDEYFILEESNLPWWRARDKNGQEGYIPSNYVTEAE

The source of these data is the Human Domainome abundance scans (Beltran et al. 2025).

± gives the uncertainty stated by the source.

This series covers variants of B1. Nature of the series: abundance fitness (aPCA) (normalised: wild type 0, dead -1); higher = more abundant; growth selection in yeast, the domain comes from the species named. The following applies: Homo sapiens.
As for R41L, the abundance fitness was -0.072 ± 0.036. Regarding R41P, the abundance fitness was -0.976 ± 0.12.

R41F: the abundance fitness is -0.142 ± 0.064.

As to R41W, the abundance fitness was -0.19 ± 0.047.

On to R41T, for which the abundance fitness was -0.097 ± 0.04. Under R41V stands -0.132 ± 0.046.

For R41C, the abundance fitness was -0.027 ± 0.078. Turning to R41I, the abundance fitness is -0.158 ± 0.088. The value for R41N was -0.674 ± 0.12. Under R41G stands -0.317 ± 0.042; under R41Y, -0.234 ± 0.11; under R41S, -0.108 ± 0.039. The value for R41M was -0.003 ± 0.058; that for R41A was -0.111 ± 0.041. As for R41Q, the abundance fitness is -0.006 ± 0.057. The value for R41E was -0.305 ± 0.069; that for R41D was -1.08 ± 0.2. Under T56N stands -0.094 ± 0.087; under T56G, 0.08 ± 0.055; under T56M, 0.025 ± 0.058. Under T56P stands -0.733 ± 0.07; under T56V, 0.014 ± 0.038. For the variant T56A, the abundance fitness is 0.033 ± 0.038. Under T56H stands 0.014 ± 0.087; under T56S, -0.03 ± 0.04; under T56L, -0.086 ± 0.031.

Regarding T56Q, the abundance fitness turned out to be 0.043 ± 0.067. Consider T56Y, for which the abundance fitness is -0.191 ± 0.064. Under T56R stands 0.012 ± 0.037; under T56C, -0.032 ± 0.092; under T56W, -0.044 ± 0.055. Under T56I stands -0.184 ± 0.071; under T56D, 0.021 ± 0.062; under T56F, -0.169 ± 0.068. Under Y54C stands -0.037 ± 0.05. With Y54A, the abundance fitness worked out at 0.02 ± 0.05. Under Y54N stands -0.266 ± 0.065.

As to Y54M, the abundance fitness stood at 0.035 ± 0.066. Under Y54G stands 0.037 ± 0.042.

In the case of Y54F, the abundance fitness was 0.101 ± 0.066. For the variant Y54L, the abundance fitness was -0.109 ± 0.034. As to Y54K, the abundance fitness is -0.159 ± 0.07.

On to Y54I, for which the abundance fitness was -0.228 ± 0.075. Regarding Y54S, the abundance fitness was 0.022 ± 0.037. The value for Y54W was -0.074 ± 0.06; that for Y54R was -0.078 ± 0.033; that for Y54Q was -0.153 ± 0.066. Regarding Y54T, the abundance fitness was -0.235 ± 0.059.

As for Y54H, the abundance fitness is -0.009 ± 0.066. Under Y54D stands -0.562 ± 0.094; under Y54V, -0.203 ± 0.048. The value for Y54P was -0.93 ± 0.099; that for I50M was -0.291 ± 0.054.

With I50S, the abundance fitness was -1.05 ± 0.12.

With I50E, the abundance fitness was -0.95 ± 0.08. The value for I50L was -0.043 ± 0.035; that for I50F was -0.121 ± 0.082.

With I50Q, the abundance fitness was -1.2 ± 0.18. Under I50N stands -0.92 ± 0.17; under I50H, -0.592 ± 0.17; under I50G, -0.876 ± 0.07.

Consider I50K, for which the abundance fitness was -1.02 ± 0.15. Under I50Y stands -0.757 ± 0.1; under I50V, -0.014 ± 0.038.

In the case of I50R, the abundance fitness is -1.01 ± 0.091. With A40T, the abundance fitness was -0.456 ± 0.057. The value for A40N was -0.981 ± 0.14; that for A40C was -0.121 ± 0.041; that for A40M was -0.334 ± 0.047. Under A40F stands -0.892 ± 0.1; under A40I, -0.266 ± 0.076. Under A40R stands -0.825 ± 0.044; under A40E, -0.965 ± 0.11. Take A40W: the abundance fitness is -1.02 ± 0.087.

A40L: the abundance fitness is -0.181 ± 0.034. The value for A40H was -0.674 ± 0.14. The value for A40P was -1.16 ± 0.14; that for A40D was -0.952 ± 0.17; that for A40G was -0.047 ± 0.035. The value for A40K was -1.07 ± 0.18; that for A40S was -0.298 ± 0.038.

Consider A40Y, for which the abundance fitness was -0.734 ± 0.086.

Regarding A40Q, the abundance fitness is -0.758 ± 0.093.

A40V: the abundance fitness is -0.047 ± 0.04. Consider G48F, for which the abundance fitness was -0.725 ± 0.066. Under G48A stands -0.825 ± 0.073; under G48M, -0.946 ± 0.078.

Turning to G48D, the abundance fitness is -0.791 ± 0.11. Under G48W stands -1.02 ± 0.087. The value for G48T was -0.886 ± 0.069; that for G48Q was -0.845 ± 0.075. Under G48Y stands -0.968 ± 0.15; under G48K, -0.8 ± 0.069; under G48C, -0.793 ± 0.096. Regarding G48V, the abundance fitness is -0.92 ± 0.063. Under G48S stands -0.862 ± 0.057; under G48L, -0.993 ± 0.052. The value for G48P was -0.68 ± 0.088; that for G48H was -0.856 ± 0.13; that for G48R was -0.827 ± 0.052. The value for G48N was -0.97 ± 0.17; that for G48E was -0.895 ± 0.12.

For G48I, the abundance fitness was -1.13 ± 0.18. Under D42Y stands -0.889 ± 0.092. Under D42G stands -0.103 ± 0.036.

Take D42K: the abundance fitness is -0.575 ± 0.085.

D42F: the abundance fitness was -0.843 ± 0.076. Under D42T stands -0.065 ± 0.05. Under D42L stands -0.81 ± 0.052; under D42E, -0.23 ± 0.044. The value for D42I was -0.995 ± 0.14.

As for D42N, the abundance fitness is -0.081 ± 0.071. The value for D42S was -0.07 ± 0.039; that for D42M was -0.498 ± 0.055; that for D42C was -0.119 ± 0.055. As for D42A, the abundance fitness turned out to be 0.017 ± 0.042. Under D42P stands -0.936 ± 0.12; under D42R, -0.673 ± 0.063. Under D42H stands -0.321 ± 0.075.

In the case of R39Y, the abundance fitness is -0.171 ± 0.07. Under R39V stands -0.065 ± 0.033; under R39S, -0.089 ± 0.039. Under R39A stands -0.179 ± 0.043; under R39C, -0.181 ± 0.054; under R39F, -0.069 ± 0.057. The value for R39L was -0.062 ± 0.038.

For R39P, the abundance fitness was -0.187 ± 0.073. The value for R39E was -0.199 ± 0.046; that for R39G was -0.36 ± 0.036; that for R39Q was -0.031 ± 0.06. For the variant R39H, the abundance fitness is -0.116 ± 0.11. Under R39W stands -0.042 ± 0.046; under R39K, -0.064 ± 0.051. Under R39T stands -0.111 ± 0.06.

For E57H, the abundance fitness was determined as 0.023 ± 0.071. The value for E57S was -0.009 ± 0.035; that for E57Y was -0.018 ± 0.083. The value for E57V was 0.03 ± 0.044. The value for E57I was -0.133 ± 0.13. E57A: the abundance fitness is -0.025 ± 0.042. Under E57G stands 0.01 ± 0.048.

Turning to E57L, the abundance fitness was -0.057 ± 0.037. The value for E57N was 0.088 ± 0.069; that for E57Q was -0.024 ± 0.043. The value for E57F was -0.026 ± 0.063; that for E57M was -0.022 ± 0.056.

Turning to E57R, the abundance fitness is -0.065 ± 0.033. Under E57D stands -0.072 ± 0.074. On to E57T, for which the abundance fitness was -0.006 ± 0.051. The value for E57W was -0.051 ± 0.042; that for E57K was -0.047 ± 0.053; that for S52R was -0.008 ± 0.038. S52K: the abundance fitness came out at 0.088 ± 0.071.

For S52I, the abundance fitness was -0.053 ± 0.066. The value for S52E was -0.065 ± 0.066; that for S52G was -0.028 ± 0.036; that for S52N was -0.026 ± 0.072.

On to S52D, for which the abundance fitness is -0.232 ± 0.063.

Take S52Y: the abundance fitness is -0.226 ± 0.067. The value for S52F was -0.108 ± 0.049.

Turning to S52M, the abundance fitness turned out to be 0.019 ± 0.07. Turning to S52A, the abundance fitness was -0.009 ± 0.047. Take S52P: the abundance fitness was -0.005 ± 0.055. S52T: the abundance fitness was -0.058 ± 0.051.

Take S52W: the abundance fitness is -0.03 ± 0.049.

For the variant S52Q, the abundance fitness is -0.032 ± 0.06. The value for S52V was -0.023 ± 0.044.
